From PMC2644404 (Journal of molecular biology, 2008) come the findings set out here.

The experiment deals with T1, Human salivary α-amylase (human, UniProt P0DUB6 16-511).
T1 sequence (looked up): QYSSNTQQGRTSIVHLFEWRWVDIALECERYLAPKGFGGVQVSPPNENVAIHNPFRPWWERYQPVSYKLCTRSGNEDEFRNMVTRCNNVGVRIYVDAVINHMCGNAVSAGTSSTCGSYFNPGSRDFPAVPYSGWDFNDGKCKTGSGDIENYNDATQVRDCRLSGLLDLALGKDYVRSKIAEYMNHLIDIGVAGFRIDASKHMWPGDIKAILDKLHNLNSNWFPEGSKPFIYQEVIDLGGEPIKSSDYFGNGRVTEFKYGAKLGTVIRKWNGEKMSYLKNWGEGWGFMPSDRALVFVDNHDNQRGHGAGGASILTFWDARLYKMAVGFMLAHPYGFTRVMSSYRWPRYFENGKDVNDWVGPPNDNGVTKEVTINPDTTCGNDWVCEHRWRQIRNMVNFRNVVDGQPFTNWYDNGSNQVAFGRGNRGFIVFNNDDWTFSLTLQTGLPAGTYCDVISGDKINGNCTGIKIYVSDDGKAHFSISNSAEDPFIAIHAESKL
The experiment is described as follows: SPR. For orientation: Surface plasmon resonance follows binding to a sensor surface in real time, without labels.

As usually defined, the Kd is the concentration at which binding is half-saturated. The term koff denotes a measure of how fast the partners let go of each other. The kon is the second-order rate constant of association. The low end stands for slower complex formation, the high end for faster complex formation.

B1: Amylase binding protein A (natural protein, S. gordonii, UniProt A8AZZ3 1-195, looked up)
chain: MKKVLLSSVVALTLFAAAAPVFSADEATDAARNNDGAYYLQTQFTNADKVNEYLAQHDGEIRAEAAADPAVVAAKAALDAVEGGSHNYGEVKAAYEAAFNNAFNAVRNKYVQQFQATYNNATEQEGKTYIQGETPEQANARYLKRVGAANNQNPAAEDKGATTPASKEEAKKSEAAAKNAGKAAGKALPKTSAVK
In turn, B1 showed a Ka of 8.79e+07 M⁻¹, a dissociation constant Kd of 11.3 nM, a dissociation rate constant (koff) of 0.000307 s⁻¹ and an on-rate (kon) of 27000 M⁻¹ s⁻¹.
